{"source": "paper PMC8627827", "about": "(Biomacromolecules, 2021)", "test": "Subcutaneous pharmacokinetics in streptozotocin-induced diabetic rats", "design": "species or system Male Sprague Dawley rats", "details": "rat, in vivo, sc, 10 U/kg"}
{"substance": "insulin-PEG20k: insulin covalently modified with 20 kDa mPEG via insulin-BCN, long-acting control", "values": [{"measurement": "Time to peak (serum insulin)", "result": "7 ± 1", "unit": "h"}]}
